The target in test [1] is SARS-CoV-2 S1 protein (Sino Biological) (SARS-CoV-2, ancestral (Wuhan-Hu-1) …, UniProt P0DTC2). The test is described as follows: ELISA.
Test [2] has as its target SARS-CoV-2 RBD-SD1 (residues 306-577) (Severe acute respiratory syndrome …, UniProt P0DTC2). The test is described as follows: BLI.

B1: antibody 5317-10 (IgG1) (antibody, V domains shown)
VH: EVQLVQSGAEVKKPGESLTISCKASGYRFTSNWITWVRQMPGKGLEWMGRIDPDDPYSNSSPSFQGHATLSLDKAINTAYLHWSSLKASDTAMYYCARVNRVGDGPDFWGQGTLVTVSS
VL: DIVMTQSPLSLPVTPGEPASISCRSSQSLLFGNGYTYLNWYLQKPGQSPQLLIYLGSNRASGVPDRFSVSGSGTDFTLIISRVEAEDVGVYFCMQALQTPWTFGQGTKVEIK
On to B1, for which, in test [1], the binding result is reported as “binds”.

B2: antibody 5317-4 (IgG1) (antibody, V domains shown)
VH: QVQLRLWGAGLLKPSETLSLTCAVSGGSFIDYYWTWIRQPPGKGLEWIGEINHFGGSGYNPSLKSRVSISVDTSKNQFSLRLNSVTAADTAIYYCARKPLLHSSVNPGAFDIWGQGTMLTVSS
VL: EIVLTQSPGTLSLSPGERAALSCRASQSVAGTYLAWYQQKPGQAPRLLIYGASSRATGIPDRFSGSGSGTDFTLTISRLEPEDFAVYYCQQYATSPRTFGQGTQLEIR
In the case of B2, the binding result in test [2] is “binds”.

The record behind these values is doi:10.1101/2021.06.02.446813 (bioRxiv, 2021).
